Test results as given in patent publication US20190241619A1.

These binders were tested against HLA-A1 (human) (assay: experimental peptide-HLA binding affinity; method not described).

Row | Binder | Binding affinity
1 | DLQPETTDLY (modifications not checked) [HPV16 E7/14-23 peptide …] | 1.62 µM
2 | ETTDLYCY (modifications not checked) [HPV16 E7/18-25 peptide ETTDLYCY] | 11.5 µM

These binders were tested against HLA-A2 (human) in the same assay as above.

Row | Binder | Binding affinity
3 | YMLDLQPETT (modifications not checked) [HPV16 E7/11-20 peptide …] | 2.19 µM
4 | MLDLQPET (modifications not checked) [HPV16 E7/12-19 peptide MLDLQPET] | 53.7 µM
5 | YMLDLQPETTD (modifications not checked) [HPV16 E7/11-21 peptide …] | 2.37 µM
6 | YMLDLQPE (modifications not checked) [HPV16 E7/11-18 peptide YMLDLQPE] | 8.07 µM
7 | MLDLQPETT (modifications not checked) [HPV16 E7/12-20 peptide …] | 3.6 µM
